Measured values taken from patent publication US20200291135A1 (INSPIRNA, published 2020).

How the values were obtained:
[1] = molecular target: T1, human Tyro3 extracellular domain (human, UniProt Q06418 41-429); assay: competition ELISA: soluble hTyro3-Fc (varied) equilibrated with z10, free z10 caught on plate-coated hMER
T1 construct: extracellular domain; also called hTyro3
T1 sequence (looked up): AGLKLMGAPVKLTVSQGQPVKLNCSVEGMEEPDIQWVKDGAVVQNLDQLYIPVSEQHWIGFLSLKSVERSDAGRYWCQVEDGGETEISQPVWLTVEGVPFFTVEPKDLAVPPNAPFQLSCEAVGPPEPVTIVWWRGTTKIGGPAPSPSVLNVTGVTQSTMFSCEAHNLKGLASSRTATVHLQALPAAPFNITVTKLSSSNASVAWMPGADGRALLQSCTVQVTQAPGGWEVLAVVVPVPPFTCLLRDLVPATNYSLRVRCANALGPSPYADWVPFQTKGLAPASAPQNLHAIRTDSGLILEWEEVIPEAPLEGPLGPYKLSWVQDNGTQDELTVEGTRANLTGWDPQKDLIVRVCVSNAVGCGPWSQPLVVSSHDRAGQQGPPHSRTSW
Procedure: Plates were washed three times with PBS 0.1% Tween and blocked with 3% non-fat dry skim milk in PBS for 2 h.
During the saturation step, dilutions of the antigen hAxl (RnD Systems, 154-AL-100), hTyro3 (RnD Systems, 859-DK-100) or mMER (RnD Systems, 591-MR-100)] were prepared at 50 nM as the highest concentration, and serially diluted 1:1 to 0.098 nM in PBS. […] Then, the saturated plate was washed three times with PBS 0.1% Tween and the antigen-antibody mixture was added to the wells in duplicate and incubated for 1 h at room temperature. The plate was then washed three times with PBS 0.1% Tween and incubated with anti-human Alkaline Phosphatase antibody (Sigma, SAB 3701248) at a dilution of 1:3000 in PBS for 1 h at room temperature. After washing three times with PBS 0.1% Tween, 100 uL of Alkaline Phosphatase Yellow (pNPP) liquid substrate system (Sigma, P7998) was added in each well and incubated for 70 min at room temperature. Plates were read at 405 nm and at 570 nm, to correct plate inconsistencies, using Glomax Discover System from Promega The absorbance was plotted as a function of antigen concentration and the Kd was calculated using GraphPad Prism 7.0c.

[2] = molecular target: T2, extracellular MERTK domain (W3725-hPro1, Sino Biological, 10298-HCCH) (human, UniProt Q12866 21-505); assay: SPR, affinity format: z10 captured by anti-human Fc on CM5 chip, extracellular MERTK domain as analyte, 1:1 fit; Affinity, SPR
T2 construct: extracellular domain; also called human extracellular MERTK
T2 sequence (looked up): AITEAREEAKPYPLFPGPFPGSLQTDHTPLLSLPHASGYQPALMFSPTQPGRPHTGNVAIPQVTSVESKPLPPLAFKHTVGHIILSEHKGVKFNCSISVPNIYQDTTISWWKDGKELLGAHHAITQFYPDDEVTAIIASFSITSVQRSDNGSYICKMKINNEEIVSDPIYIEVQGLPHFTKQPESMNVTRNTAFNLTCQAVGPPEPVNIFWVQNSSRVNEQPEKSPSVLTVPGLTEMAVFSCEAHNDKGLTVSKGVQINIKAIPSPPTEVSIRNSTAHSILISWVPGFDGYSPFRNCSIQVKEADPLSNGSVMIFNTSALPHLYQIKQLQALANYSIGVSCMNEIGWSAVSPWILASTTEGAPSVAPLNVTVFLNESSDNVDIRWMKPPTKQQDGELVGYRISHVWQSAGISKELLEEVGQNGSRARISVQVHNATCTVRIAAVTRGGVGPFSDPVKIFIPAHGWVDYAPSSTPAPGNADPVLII
Procedure: A CM5 sensor chip was activated for 420 s with a mixture of 400 mM EDC and 100 mM NHS. […] The chip was deactivated by 1 M ethanolamine-HCl. […] 10 mM glycine pH 1.5 as regeneration buffer was injected following every dissociation phase. The chip was regenerated with 10 mM glycine pH 1.5. One surface channel (without captured ligand) was used as control surface for reference subtraction. Final data of each interaction was deducted from reference channel and buffer channel data. […] A molecular weight of 54 kDa was used to calculate the molar concentration of the analyte.

[3] = molecular target: T3, human MERTK expressed on cells (SKMEL5 melanoma cells; in vitro differentiated M2 macrophages) (human, UniProt Q12866 21-999); assay: flow cytometry, APC-labeled z10 on MERTK-expressing SKMEL5 melanoma cells
T3 construct: Endogenous MERTK of human cells; also called surface MERTK
T3 sequence: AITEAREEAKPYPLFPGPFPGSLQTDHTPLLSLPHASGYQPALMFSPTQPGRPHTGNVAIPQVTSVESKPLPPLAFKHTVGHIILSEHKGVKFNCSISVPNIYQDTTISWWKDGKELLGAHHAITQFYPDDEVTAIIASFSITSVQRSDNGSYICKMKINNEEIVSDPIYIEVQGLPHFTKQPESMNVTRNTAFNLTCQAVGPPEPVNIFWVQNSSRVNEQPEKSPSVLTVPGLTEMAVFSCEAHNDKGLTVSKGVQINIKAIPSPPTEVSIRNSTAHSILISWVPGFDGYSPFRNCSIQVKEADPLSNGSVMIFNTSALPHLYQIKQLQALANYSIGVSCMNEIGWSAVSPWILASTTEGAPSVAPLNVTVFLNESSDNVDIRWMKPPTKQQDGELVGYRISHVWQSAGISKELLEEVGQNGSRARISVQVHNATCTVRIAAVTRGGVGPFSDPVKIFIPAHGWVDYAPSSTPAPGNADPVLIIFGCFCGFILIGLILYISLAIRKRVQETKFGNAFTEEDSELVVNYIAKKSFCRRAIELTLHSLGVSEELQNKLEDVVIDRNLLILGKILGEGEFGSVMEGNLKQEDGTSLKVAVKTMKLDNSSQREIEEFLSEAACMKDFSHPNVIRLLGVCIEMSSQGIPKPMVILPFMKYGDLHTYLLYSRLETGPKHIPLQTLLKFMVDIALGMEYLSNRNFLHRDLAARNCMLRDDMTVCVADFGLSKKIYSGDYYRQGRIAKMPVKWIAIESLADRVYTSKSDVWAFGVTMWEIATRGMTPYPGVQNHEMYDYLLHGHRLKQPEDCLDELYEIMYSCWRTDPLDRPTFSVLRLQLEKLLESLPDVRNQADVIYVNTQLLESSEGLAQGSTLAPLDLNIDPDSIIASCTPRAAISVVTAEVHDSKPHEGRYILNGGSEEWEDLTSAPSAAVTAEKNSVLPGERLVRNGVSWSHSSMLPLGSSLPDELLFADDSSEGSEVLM
Procedure: SKMEL5 cells were harvested with trypsin, washed twice with PBS and strained through a 70 µm filter. 50,000 cells were resuspended in 60 μL FACS buffer (2% BSA, 10 mM EDTA, 25 mM HEPES, 0.1% sodium azide in Ca/Mg-free PBS) containing 10% human AB serum (Sigma, H4522). […] The APC signals from live single cells were analyzed in FlowJo and the MFIs were plotted with GraphPad Prism. Single color control samples were used to create a compensation matrix.

B1: z10 antibody (antibody, human IgG1, kappa, V domains shown)
VH: QVQLVQSGAEVKKPGASVKVSCKASGYTFTNYGMNWVRQAPGQGLEWMGWINTYTGEPTYADDFKGRVTFTTDTSTSTAYMELRSLRSDDMAVYYCARKSTVVSRYFDVWGQGTTVTVSS
VL: DIQMTQSPSFLSASVGDRVTITCKASQDVGDAVTWYQQKPGKAPKLLIYWASTRHTGVPDRFSGSGSGTDFTLTISSLQPEDFATYYCQQYRSYPLTFGQGTKLEIKR
notes: also called MERTK (z10) antibody
[1]
  binding result: no binding (tested: 50 nM)
[2]
  Kd: 3 nM
[3]
  EC50: 6.7 nM
